Target: T1, GST-AFF1 (AUXIN RESPONSE FACTOR F-BOX1, At3g49150) (Arabidopsis thaliana, UniProt Q9M3B7 1-630)
T1 sequence (looked up): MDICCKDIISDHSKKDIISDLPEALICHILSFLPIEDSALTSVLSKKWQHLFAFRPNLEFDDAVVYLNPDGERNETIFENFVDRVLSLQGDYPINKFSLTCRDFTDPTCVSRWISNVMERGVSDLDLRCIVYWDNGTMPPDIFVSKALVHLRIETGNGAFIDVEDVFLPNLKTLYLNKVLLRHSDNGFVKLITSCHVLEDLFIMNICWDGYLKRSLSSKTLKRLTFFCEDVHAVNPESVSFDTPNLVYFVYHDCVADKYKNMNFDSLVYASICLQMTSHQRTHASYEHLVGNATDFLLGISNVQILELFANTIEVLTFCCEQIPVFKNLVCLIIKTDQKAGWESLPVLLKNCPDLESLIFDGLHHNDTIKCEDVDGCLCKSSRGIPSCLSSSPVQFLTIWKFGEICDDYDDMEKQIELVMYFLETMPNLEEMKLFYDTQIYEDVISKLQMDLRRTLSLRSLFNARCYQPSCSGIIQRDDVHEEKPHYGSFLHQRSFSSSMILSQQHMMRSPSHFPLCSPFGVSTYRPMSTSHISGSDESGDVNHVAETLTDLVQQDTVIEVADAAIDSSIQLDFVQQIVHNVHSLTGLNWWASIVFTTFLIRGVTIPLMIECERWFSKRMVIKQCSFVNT
Experiment: pull-down

B1: His-ASK1 (ARABIDOPSIS SKP1-LIKE 1) (natural protein, Arabidopsis thaliana, UniProt Q39255 1-160, looked up)
chain: MSAKKIVLKSSDGESFEVEEAVALESQTIAHMVEDDCVDNGVPLPNVTSKILAKVIEYCKRHVEAAASKAEAVEGAATSDDDLKAWDADFMKIDQATLFELILAANYLNIKNLLDLTCQTVADMIKGKTPEEIRTTFNIKNDFTPEEEEEVRRENQWAFE
binding result: binds

From doi:10.1101/2021.04.25.441346 (bioRxiv, 2021)
